From a protein production outcome set (Wang et al. 2014) come the findings set out here.

This data set can be described thus: label from the status in PepcDB records.
For the sequence “MLHRSPKRMVAVALFLACLVISLTTVTFAAPAPTIQIQNPMVEGIRSPLRIASDSLGGVYVSDSLAKGVLKYDVVGHLAQTIKTAAPPQGIAVASDGTLLVGQGTYVSMYSAAGQEIGKLGAGEGQFKMADGITVDDDGSIYVVDCLDNSVQIFNAAGSFVKKFGSFGTTPGKFSTPSGIAFEKVSRQVAVVDTRTGRIQFFDKTGAYVRTIGSFGTNPLRFTAPQGVSFEYSSGSTPVLKRMYVVDTFQSTVQAIDPAATPVFLSYIGTYGSGNGKLMVPSDVLFDQATGRLLVVNGFGNVSVYGVDGGGVSVAVDLIPPALTINPVVSPFMSPTLDLSGTVEAGARLTIATGGTTTVGAISFPTPTTWQTTLSGFAPGGTTITVTARDAANNATNQSVTVSYLQSGPMLTMEPLPTFTADTFQQLSGLVDPGSVVTVTNATTGASAKALVFGNTWSYRLPLAAGANSITVKAEKSMSAATTVSATTTLDAIPPALAVSALADGSYTSGQVQNIQVMVTDANLDVVTLNGQQIVPVNGSYSTAITLKPGPNVIMAAAVDLAGNVTTDIRTIIYDGTRPVVSFTTPAEGTYVTSDHVSVSGIVDETAVVTVAGLPARMDGTSWSADVPLVPGMNTIDVVAVDLAGNVGSVKRTVTYDTEAPALVVSAPSQDVVTNRPTFGFAGNVTDPSPVTLTAEVDGAPVAVTVTDGSFTLAVTFANEGSHAVTFTATDAAGNASRVTRTVIYDGTAPALTLDPVNTPYPSVLTGTVEAGAAVTVEDRNGSAGTVTVSGEKWNAALEVGGYDAASLAVRATDVAGNSTVRSLVVNVPDGDLNGDGAVTVHDVILALRMFTRQMVPTANQLAHGDIGPLYQGKAKPNGVVDLVDAILIMRKALGMPSW”, the protein production entry is reported as “failed”.

Regarding “MAKKTKAKAAKAARPKAAKTAVAKAKPAKRGVAARSVAAKPPKVAPGELVTLLDFVRYAVSRFAEAGVVFAHGTTDPIAEAVFLVGEALHLHPDQFEMFASARVTTREAAAILGLIERRIGSRLPAAYLVNKIYMRGVPFYVDERVIVPRSYIGELLDSHFDGGDTSLIDAPEAIERVLDLCTGSGCLAILAAYAFPNATVDAVDLSKDALAVATRNVAEHRLDDRVSLYHGDLFGPLGDERYDLIITNPPYVDADGMASLPAECRAEPAMAFDGGDDGLTIIRRILAEAKHHLNPDGGLLCEVGRCRPQIEDEFPQLPLLWLDSEDSEAEVFWIAAADL”, the protein production result is given as “failed”. As to “MHPVKALKQGVKNGTMPIIARFYGIIIKMFFNEHLPPHFHALYGEYNAIFNINTLEMIEGDMPLRARKLVVEWAENHQKELEIMWETKEFKQLPGLELEHHHHHH”, the protein production result is on record as “not failed”. As to “MSDSIVGIPREDHQTFLYNPFTSQRYELPPLTIEDPHLKSVLRYGVLTGDPREDNTYACLVADSLHANLMAIGNTHPPSLHLYYVAKRNGEWDQNWSVTRIPTHNLPVVGSTIDSISPSADKISIIGWGHSFDFTFQSQDWNVTNINYTMEWNPFHGQSFDQIKHRLQIDPQTLDIIGTKTDRERVKNRIWFVINQIISHIDGVWVEVRA”, the protein production entry is “failed”. As for “MSRDGGDVIETAVKSLGKGFDLTADFRLKYCKDGDGSAGDDRLVVLDQTQNRELHIPGFGVFQNVSADINCDKGERTRFRSDILDFNKMSEYFNQRSSVTGKIPSGNFNATFGFQSGSWATDAANVKSLGLDASVVTLFNLHIHNPNRLRLTDRVRNAVPSSWDPQLLARFIERYGTHVITGVSVGGQDVVVVRQDKSSDLDNDLLRHHLYDLGDQLFTGSCLLSTRRLNKAYHHSHSQPKFPEAFNVFDDKQTVAFNNFSINSQNGITVICAKRGGDGRAKSHSEWLITVPDKPDAINFNFIPITSLLKDVPGSGLLSHAMSLYLRYKPPLMDLQYFLDFSGPRAWAPVHNDLPFGAAPNMASAYPALHINFMGPKLYVNTTPVTSEKNPVTGMRFFLEGKKCNRLAIHLQHLDNTRTTVGEKITDEHIWRGSDQITDNDRYFEPLNGKKFSHVCTVPVKYDPNWIKTTSNHKSQNDVAFIVTGAQLEVKKHGSKSVLHLRLRYTKVSDHYVVQNSWVHGPIGTSQKSGIFSSMSMPLTSGSVHHNMIQKDKNEVVLDSGVFPGGPPVPANNKIVKFVDLSQLCRGPQHSPGHWLVTGVRLYLDKGKLCLHVKFALLHRQRLLVSS”, the protein production entry was “failed”. For the sequence “MSNSHPLRPFTAVGEIDHVHILSEHIGALLIGEEYGDVTFVVEKKRFPAHRVILAARCQYFRALLYGGMRESQPEAEIPLQDTTAEAFTMLLRYIYTGRATLTDEKEEVLLDFLSLAHKYGFPELEDSTSEYLCTILNIQNVCMTFDVASLYSLPKLTCMCCMFMDRNAQEVLASDGFLSLSKTALLNIVLRDSFAAPEKDIFLALLNWCKHNAKENHAEIMQAVRLPLMSLTELLNVVRPSGLLSPDAILDAIKVRSESRDMDLNYRGMLIPEENIATMKYGAQVVKGELKSALLDGDTQNYDLDHGFSRHPIDDDCRSGIEIKLGQPSIINHIRLLLWDRDSRSYSYFIEVSMDELDWIRVIDHSHYLCRSWQKLYFPARVCRYIRIVGTHNTVNKIFHIVAFECMFTNKAFTLEKGLIAPMENVATIADCASVIEGVSRSRNALLNGDTKNYDWDSGYTCHQLGSGAIVVQLAQPYMIGSIRLLLWDCDDRSYSYYVEVSTNQQQWTMVADRTKVSCKSWQSVTFERQPASFIRIVGTHNTANEVFHCVHFECPEQQSTQKEDSSEEPGTGDLSTPSQQLDPHAPRAPSASSLPPSPGPNLHSPNQQNQ”, the protein production result is listed as “failed”. Take “MSEEQHILEVLQSDDAEQVREAAYSAGELRLEAAVPHLVRHLQSQNIGVQEAVDNALRKIGGAAAVAGVIPLLRSDDAPIRNISMDILRDIGRDEFDALKQLLHDEDPDIRIFASDILGTSGSILAVPALCEALLRDPEVNVRYQAAVSLGTLAFPEAADCLNKAMQDEEWVQFSVIEALIKIRAESSVNALVKALDTTSDLVASMIVDALGEMGNLKAVPLLLKRIEKSPTPLRNKIVRAIVSILGKKSLSLLGEREQQRLGAYLLAALDDEDEEVQDAAMVGLASLGQAEATVAVLRLAARLDPDRDHERLEAAIRCIGGIGFNEAVEEALSDENESTILMVVEAAADMNPAEIVPALKRIFWDKGRDAQRAIATQLARIASLEDVDFFLDLLERAEDAHVIKAALHFLGHRARPAGVGERMLALLDHPYDDVKEAALEACIALQDVSLCASFRERFHSGDPLQRMMATYAMGRLDVDGNLDVLREALVDDVPDVRKVALEALAGTCPITPEHLELVVPLMHDPVREVRLALVDLFGACPEESVIGHLLEALDDEDDWVRVRAIEALGRLGRKECVTPLIERVDGAGNLVLLKIIEALGSIGGNMAFRALLALMEHEDPEIQQAAEDAVARLGEQDSEGE”: the protein production entry is “failed”. Consider “MKNLKIIWIYRLGLLLLVFLCLLVFLKIKPLWAPIIFVCKVAITPFLIACFIAYLLHPLIEKIHKEGMPRTLAILLIYILFFGGIGYGIYKGTPVVIKQLQEINEQFPQFTKMYDSWMDGVTEQTANFPSFIHEKVKQIFVGVETKIQALLNKVMSTARGVLDSLLIIFLIPFIVFYILKDYGEFYHIFWKLVPSKWRSTGQMLAKEIDKSLGSYIRGQLFVCLVLGGVSALSFWFIGMKYPLLLGIIIGVTDIIPYFGPILGAIPTLMIAATVSTSLLIKAGIAIAILQFVESNILSPYIVGKSLRMHPVIIMLALLVGGEVGGIVGLLISVPILAVIRTVIVHVRPLWKKEDMQ”, for which the protein production result was “failed”. For “MSERIVPSGDVELWSDDFGDPADPALLLVMGGNLSALGWPDEFARRLADGGLHVIRYDHRDTGRSTTRDFAAHPYGFGELAADAVAVLDGWGVDRAHVVGLSMGATITQVIALDHHDRLSSLTMLLGGGLDIDFDANIERVMRGEPTLDGLPGPQQPFLDALALMNQPAEGRAAEVAKRVSKWRILSGTGVPFDDAEYARWEERAIDHAGGVLAEPYAHYSLTLPPPSRAAELREVTVPTLVIQAEHDPIAPAPHGKHLAGLIPTARLAEIPGMGHALPSSVHGPLAEVILAHTRSAA”, the protein production result is “not failed”. The value for “MGHHHHHHSHMLITVYCVRRDLSEVTFSLQVSPDFELRNFKVLCEAESRVPVEEIQIIHMERLLIEDHCSLGSYGLKDGDIVVLLQKDNVGPRAPGRAPNQPRVDFSGIAVPGTSSSRPQHPGQQQQRTPAAQRSQGLASGEKVAGLQGLGSPALIRSMLLSNPHDLSLLKERNPPLAEALLSGSLETFSQVLMEQQREKALREQERLRLYTADPLDREAQAKIEEEIRQQNIEENMNIAIEEAPESFGQVTMLYINCKVNGHPLKAFVDSGAQMTIMSQACAERCNIMRLVDRRWAGVAKGVGTQRIIGRVHLAQIQIEGDFLQCSFSILEDQPMDMLLGLDMLRRHQCSIDLKKNVLVIGTTGTQTYFLPEGELPLCSRMVSGQDESSDKEITHSVMDSGRKEH” was “failed”.
